Results taken from PMC8509923.

Target: T1, Upc2A DNA-binding domain (Candida glabrata) (UniProt Q6FX18)
T1 sequence: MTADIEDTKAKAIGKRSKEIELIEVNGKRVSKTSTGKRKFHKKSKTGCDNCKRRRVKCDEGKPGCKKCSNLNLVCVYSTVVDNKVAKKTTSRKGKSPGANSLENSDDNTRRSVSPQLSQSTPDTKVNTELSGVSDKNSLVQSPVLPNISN
Assay: DNase I footprinting
Conditions: 5' amino-MC6 on reverse strand

## ACTGCCACACAGAAGAGCAGCGGGACTACCGGAACACGATTAGCCTTCGTTTACATGTTGGCAAACCCAGGACATAGATCAGAGTGTATTACATTAGCACAGACCGGCCGTGGGTAAGTTTTTCCTGACTAAAATGGCCGCAGCTGCAAGTCCACGGAATATTTCCCTTTTTTGCTCGATAAGTTGTAC (double strand) [CDR1 promoter DNase I probe]
  binding: binds
